The chains are these.
T1: Vav2 SH2 domain, monomeric, cleaved from GST (human, UniProt P52735 673-767)
T1 sequence: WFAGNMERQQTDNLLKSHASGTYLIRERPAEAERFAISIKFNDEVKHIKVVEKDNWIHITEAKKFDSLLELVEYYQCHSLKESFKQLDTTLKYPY

T2: Nap4/SOCS7 SH2 domain, monomeric, cleaved from GST (human, UniProt O14512 400-509)
T2 sequence: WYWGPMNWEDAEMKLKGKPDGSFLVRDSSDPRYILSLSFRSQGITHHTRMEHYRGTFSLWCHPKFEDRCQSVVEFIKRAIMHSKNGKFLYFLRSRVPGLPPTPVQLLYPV

T3: purified recombinant full-length Vav2 (human, UniProt P52735 1-878)
T3 sequence: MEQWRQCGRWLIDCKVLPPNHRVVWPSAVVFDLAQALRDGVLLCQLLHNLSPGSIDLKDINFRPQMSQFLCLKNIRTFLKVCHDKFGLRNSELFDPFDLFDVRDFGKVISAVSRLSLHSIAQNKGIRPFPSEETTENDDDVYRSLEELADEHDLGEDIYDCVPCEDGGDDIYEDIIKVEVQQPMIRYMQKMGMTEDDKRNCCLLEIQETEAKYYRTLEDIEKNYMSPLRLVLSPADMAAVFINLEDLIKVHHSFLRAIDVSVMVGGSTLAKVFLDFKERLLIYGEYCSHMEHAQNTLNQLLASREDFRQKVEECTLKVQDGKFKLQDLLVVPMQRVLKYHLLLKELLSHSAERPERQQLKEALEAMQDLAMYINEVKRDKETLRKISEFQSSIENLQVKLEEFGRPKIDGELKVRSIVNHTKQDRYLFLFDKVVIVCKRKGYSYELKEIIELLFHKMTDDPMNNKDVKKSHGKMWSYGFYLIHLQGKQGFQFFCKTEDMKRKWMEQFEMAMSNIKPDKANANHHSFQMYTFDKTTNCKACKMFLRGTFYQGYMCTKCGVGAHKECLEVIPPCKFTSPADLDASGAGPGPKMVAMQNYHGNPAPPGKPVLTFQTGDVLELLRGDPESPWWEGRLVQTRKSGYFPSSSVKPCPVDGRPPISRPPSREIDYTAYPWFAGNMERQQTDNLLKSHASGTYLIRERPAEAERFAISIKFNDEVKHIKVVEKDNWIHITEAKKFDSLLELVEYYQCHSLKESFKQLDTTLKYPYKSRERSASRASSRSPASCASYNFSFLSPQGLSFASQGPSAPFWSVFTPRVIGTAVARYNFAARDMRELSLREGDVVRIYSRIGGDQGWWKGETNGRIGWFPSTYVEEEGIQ

B1: fluoresceinated cortactin phospho-Y482 peptide (peptide)
peptide: Flu-EDDT[pY]DGYE
B2: Arg SH2 domain, monomeric, cleaved from GST (domain or fragment)
chain: WYHGPVSRSAAEYLLSSLINGSFLVRESESSPGQLSISLRYEGRVYHYRINTTADGKVYVTAESRFSTLAELVHHHSTVADGLVTTLHYPA
B3: fluoresceinated cortactin phospho-Y421 peptide (peptide)
peptide: Flu-SSPI[pY]EDAA
B4: phosphorylated cortactin (natural protein)
chain: not shown
modifications: phosphotyrosine (confirmed by anti-phosphotyrosine Western blot; sites of this preparation not stated)

Assay [1] addresses Brk SH2 domain, monomeric, cleaved from GST (human, UniProt Q13882 78-170). The assay can be described thus: fluorescence polarisation. On the technique in general: In fluorescence polarisation assays a small probe gives low polarisation when free and higher when bound to something large.
Assay [2] concerns the target Src SH2 domain, monomeric, cleaved from GST (human, UniProt P12931 151-248). In words: fluorescence polarisation.
Assay [3] concerns the target B2. In words: fluorescence polarisation.
In assay [4] the target is T1, Vav2 SH2 domain, monomeric, cleaved …. In words: fluorescence polarisation.
The target in assay [5] is Fyn SH2 domain, monomeric, cleaved from GST (human, UniProt P06241 149-246). The assay can be described thus: fluorescence polarisation.
Assay [6] addresses Nck1 SH2 domain, monomeric, cleaved from GST (human, UniProt P16333 282-376). The assay can be described thus: fluorescence polarisation.
The target in assay [7] is T2, Nap4/SOCS7 SH2 domain, monomeric, …. The assay can be described thus: fluorescence polarisation.
For assay [8], the target named is B3. The assay can be described thus: fluorescence polarisation.
Assay [9] has as its target T3, purified recombinant full-length Vav2. The assay can be described thus: pull-down.

Non-standard residues stand in square brackets, D forms with d. No end group written: not given here. Flu = 5-carboxyfluorescein, coupled after removal of the final Fmoc group; pY = N[C@@H](Cc1ccc(OP(=O)(O)O)cc1)C(=O)O

As a reminder, the Kd is the concentration at which binding is half-saturated. As to B1, the Kd in [1], in [2], in assay [3], in assay [4], in [5] and in assay [6] was over 5 µM throughout. In assay [7], this molecule displayed a dissociation constant (Kd) of over 5 µM.
Take B2: the “fold greater affinity than for the phospho-Y466 peptide” value in assay [8] came to 2.5 fold.
Regarding B3, the binding result in [1], in [2], in assay [5], in assay [6] and in [7] was “binds” in each case.
With B4, in [9], the Kd is 1.5 ± 0.3 µM.

The values are drawn from paper PMC5426849 (Molecular Biology of the Cell, 2017).
